For five substances, relative cross-correlation (rel.cc.), stoichiometry N and normalized molecular brightness results are on record in paper PMC8545396.

Where “and” joins values, the source holds several entries; their conditions need not be identical. Identical values can stand only once. Like-named read-outs stand apart in the source and are kept apart here.

The target of assay [1] is M2-mCherry2 (mCherry2 fused to the extracellular terminus of matrix protein 2 from influenza A/chicken/FPV/Rostock/1934) (influenza A/chicken/FPV/Rostock/1934).
For assay [2] the target is unchanged. This is another data set of the same source.
The target of assay [3] is PB1-mEGFP (IAV polymerase basic protein 1, influenza A/human/WSN/1933) (influenza A/human/WSN/1933).
The target of assay [4] is PA-mEYFP (IAV polymerase acidic protein, influenza A/human/WSN/1933) (influenza A/human/WSN/1933) (UniProt P15659).
Assay [5] has as its target PB2-mCherry2 (IAV polymerase basic protein 2, influenza A/human/WSN/1933) (influenza A/human/WSN/1933).
Assay [6] has the same target. The source holds these as a separate data set.
The target in assay [7] is PA-mEYFP (IAV polymerase acidic protein, influenza A/human/WSN/1933) (influenza A/human/WSN/1933) (UniProt P15659). This is another data set of the same source.

“LC3-mEYFP (from UniProt Q62625 1-120) (natural protein)”: the relative cross-correlation (rel.cc.) in assay [1] was found to be 0.52. Moreover, the stoichiometry N (usually the number of molecules, sites or subunits per partner or assembly) in assay [2] is 0.5 LC3:M2 and 0.25 LC3:M2.
In assay [3], “PB1-mEGFP (IAV polymerase basic protein 1, influenza A/human/WSN/1933) (natural protein)” registered a stoichiometry N of 2.1. The relative cross-correlation (rel.cc.) was 0.93 in assay [4] and 0.47 in assay [5].
As for “M2-mCherry2 (mCherry2 fused to the extracellular terminus of matrix protein 2 from influenza A/chicken/FPV/Rostock/1934) (natural protein)”, in assay [1], the normalized molecular brightness stood at 2.24 and the stoichiometry N turned out to be 3.1.
“PB2-mCherry2 (IAV polymerase basic protein 2, influenza A/human/WSN/1933) (natural protein)” returned a stoichiometry N in assay [6] of 2.2.
In the case of “PA-mEYFP (IAV polymerase acidic protein, influenza A/human/WSN/1933) (from UniProt P15659 1-716) (natural protein)”, the stoichiometry N in assay [7] turned out to be 1.8. The same substance displayed a relative cross-correlation (rel.cc.) in assay [5] of 0.39.
